Test results published in patent US20160200782A1 (MOERAE MATRIX, published 2016).

Legend:
Assay in all cases: cell-based or functional assay
[1] = target: TrkA(h) (human, UniProt P04629 441-796, limits assumed)
[2] = target: MLCK(h) (human)
[3] = target: c-RAF(h) (human, UniProt P04049 306-648, limits assumed)
[4] = target: Hck(h) activated (human, UniProt P08631 251-518, limits assumed)
[5] = target: T1, PKCε(h) (human, UniProt Q02156 1-737)
T1 sequence (looked up): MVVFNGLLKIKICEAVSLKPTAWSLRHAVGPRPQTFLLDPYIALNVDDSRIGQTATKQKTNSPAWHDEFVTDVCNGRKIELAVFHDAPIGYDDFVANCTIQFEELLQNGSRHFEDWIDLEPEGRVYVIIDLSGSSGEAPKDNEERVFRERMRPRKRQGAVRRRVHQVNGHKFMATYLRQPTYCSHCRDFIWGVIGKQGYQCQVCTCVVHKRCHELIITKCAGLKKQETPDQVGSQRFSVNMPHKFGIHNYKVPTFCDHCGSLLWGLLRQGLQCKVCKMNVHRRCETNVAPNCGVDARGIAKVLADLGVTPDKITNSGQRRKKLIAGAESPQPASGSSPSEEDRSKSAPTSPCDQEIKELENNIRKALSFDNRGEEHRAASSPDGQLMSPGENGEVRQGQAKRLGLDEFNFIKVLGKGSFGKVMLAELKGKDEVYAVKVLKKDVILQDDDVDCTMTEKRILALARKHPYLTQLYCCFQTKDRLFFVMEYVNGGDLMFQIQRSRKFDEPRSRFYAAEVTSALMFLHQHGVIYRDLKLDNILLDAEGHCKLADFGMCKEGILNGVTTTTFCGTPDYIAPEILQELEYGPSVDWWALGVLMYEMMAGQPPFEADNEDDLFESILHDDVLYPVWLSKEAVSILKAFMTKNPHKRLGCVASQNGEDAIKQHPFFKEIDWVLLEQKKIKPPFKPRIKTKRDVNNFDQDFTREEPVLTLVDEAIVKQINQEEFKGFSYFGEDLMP

[6] = target: CaMKI(h) (human, UniProt Q14012 1-370, limits assumed)
Sequence of CaMKI(h) (Q14012 whole entry): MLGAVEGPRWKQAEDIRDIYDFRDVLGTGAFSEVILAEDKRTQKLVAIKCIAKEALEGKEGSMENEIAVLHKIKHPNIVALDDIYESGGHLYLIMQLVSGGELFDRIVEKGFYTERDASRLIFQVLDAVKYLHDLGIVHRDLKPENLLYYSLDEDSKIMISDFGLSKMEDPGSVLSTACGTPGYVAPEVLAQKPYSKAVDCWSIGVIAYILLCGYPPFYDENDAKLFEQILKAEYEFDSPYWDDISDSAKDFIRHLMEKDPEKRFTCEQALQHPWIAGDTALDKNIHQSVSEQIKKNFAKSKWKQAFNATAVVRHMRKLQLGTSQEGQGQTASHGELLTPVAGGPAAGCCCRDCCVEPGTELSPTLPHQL

[7] = target: T2, MuSK(h) (human, UniProt O15146 517-869, limits assumed)
T2 sequence (looked up): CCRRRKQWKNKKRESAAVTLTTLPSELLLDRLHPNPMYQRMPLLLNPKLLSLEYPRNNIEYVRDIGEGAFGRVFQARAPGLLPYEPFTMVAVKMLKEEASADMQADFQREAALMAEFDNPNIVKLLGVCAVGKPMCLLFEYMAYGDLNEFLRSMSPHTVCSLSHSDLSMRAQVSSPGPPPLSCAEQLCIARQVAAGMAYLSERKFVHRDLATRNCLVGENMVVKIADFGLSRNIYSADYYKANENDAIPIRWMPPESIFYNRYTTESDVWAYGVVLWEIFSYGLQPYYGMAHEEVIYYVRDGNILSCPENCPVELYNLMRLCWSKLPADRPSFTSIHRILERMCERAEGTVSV

[8] = target: CaMKIIβ(h) (human, UniProt Q13554 1-666, limits assumed)
Sequence of CaMKIIβ(h) (Q13554 whole entry): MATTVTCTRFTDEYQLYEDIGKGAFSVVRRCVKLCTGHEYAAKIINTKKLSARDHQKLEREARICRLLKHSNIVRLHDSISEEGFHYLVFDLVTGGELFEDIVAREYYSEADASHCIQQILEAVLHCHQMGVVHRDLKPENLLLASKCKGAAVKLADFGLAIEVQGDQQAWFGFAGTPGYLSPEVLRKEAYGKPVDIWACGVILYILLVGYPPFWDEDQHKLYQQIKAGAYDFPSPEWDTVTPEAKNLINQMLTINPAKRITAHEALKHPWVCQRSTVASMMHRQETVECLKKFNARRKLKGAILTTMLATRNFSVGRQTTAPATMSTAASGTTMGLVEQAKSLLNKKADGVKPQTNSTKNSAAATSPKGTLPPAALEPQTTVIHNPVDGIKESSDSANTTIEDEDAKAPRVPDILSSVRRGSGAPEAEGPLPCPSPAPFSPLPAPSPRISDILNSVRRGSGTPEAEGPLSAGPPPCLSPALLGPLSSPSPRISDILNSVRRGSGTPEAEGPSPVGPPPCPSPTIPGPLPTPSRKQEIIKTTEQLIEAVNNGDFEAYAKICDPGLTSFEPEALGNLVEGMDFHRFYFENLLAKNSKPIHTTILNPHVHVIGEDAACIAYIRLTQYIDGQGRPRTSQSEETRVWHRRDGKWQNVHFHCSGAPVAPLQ

[9] = target: GSK3α(h) (human, UniProt P49840 1-483)
Sequence of GSK3α(h) (P49840 whole entry): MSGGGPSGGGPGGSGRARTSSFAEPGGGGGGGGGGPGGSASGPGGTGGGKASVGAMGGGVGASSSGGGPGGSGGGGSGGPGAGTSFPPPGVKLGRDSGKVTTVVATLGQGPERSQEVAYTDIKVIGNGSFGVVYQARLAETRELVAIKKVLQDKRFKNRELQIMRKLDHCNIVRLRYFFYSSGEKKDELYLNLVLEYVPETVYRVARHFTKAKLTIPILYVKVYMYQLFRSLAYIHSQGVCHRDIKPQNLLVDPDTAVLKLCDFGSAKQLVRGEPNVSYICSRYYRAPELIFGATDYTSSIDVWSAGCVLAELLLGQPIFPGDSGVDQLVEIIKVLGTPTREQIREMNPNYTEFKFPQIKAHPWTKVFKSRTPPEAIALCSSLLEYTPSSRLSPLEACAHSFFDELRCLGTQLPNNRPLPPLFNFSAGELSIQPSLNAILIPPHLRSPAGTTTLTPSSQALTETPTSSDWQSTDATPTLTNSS

[10] = target: T3, PDK1(h) (human, UniProt O15530 1-556, limits assumed)
T3 sequence (looked up): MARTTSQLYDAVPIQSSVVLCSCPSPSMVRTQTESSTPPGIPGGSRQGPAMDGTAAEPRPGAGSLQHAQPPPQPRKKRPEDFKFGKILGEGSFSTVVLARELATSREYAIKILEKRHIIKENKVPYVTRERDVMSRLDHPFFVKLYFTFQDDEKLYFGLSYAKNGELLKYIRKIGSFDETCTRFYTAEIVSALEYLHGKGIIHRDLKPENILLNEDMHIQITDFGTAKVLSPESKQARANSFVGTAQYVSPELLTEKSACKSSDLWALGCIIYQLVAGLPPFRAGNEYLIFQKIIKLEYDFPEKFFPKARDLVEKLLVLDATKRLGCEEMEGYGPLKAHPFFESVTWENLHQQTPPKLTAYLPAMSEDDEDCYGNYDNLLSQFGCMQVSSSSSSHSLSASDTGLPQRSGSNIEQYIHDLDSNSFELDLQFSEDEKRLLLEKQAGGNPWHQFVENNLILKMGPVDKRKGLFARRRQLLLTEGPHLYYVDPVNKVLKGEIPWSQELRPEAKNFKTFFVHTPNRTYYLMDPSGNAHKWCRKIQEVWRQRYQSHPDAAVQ

[11] = target: T4, CaMKIV(h) (human, UniProt Q16566 1-473, limits assumed)
T4 sequence (looked up): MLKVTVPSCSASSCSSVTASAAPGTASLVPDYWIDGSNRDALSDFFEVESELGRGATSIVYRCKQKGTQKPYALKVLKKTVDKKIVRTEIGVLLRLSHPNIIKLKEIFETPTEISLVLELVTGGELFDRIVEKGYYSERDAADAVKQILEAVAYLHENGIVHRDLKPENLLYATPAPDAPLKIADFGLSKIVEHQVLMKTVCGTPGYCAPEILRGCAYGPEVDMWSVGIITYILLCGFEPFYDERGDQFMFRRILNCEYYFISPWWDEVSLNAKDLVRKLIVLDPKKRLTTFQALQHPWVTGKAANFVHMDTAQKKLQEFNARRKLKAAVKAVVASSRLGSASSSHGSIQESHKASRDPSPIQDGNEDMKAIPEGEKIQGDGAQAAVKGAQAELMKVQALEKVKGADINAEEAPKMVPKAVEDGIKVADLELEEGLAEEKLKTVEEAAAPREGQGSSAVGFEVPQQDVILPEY

[12] = target: PRK2(h) (human, UniProt Q16513 501-984, limits assumed)
Sequence of PRK2(h) (Q16513 501-984 limits assumed): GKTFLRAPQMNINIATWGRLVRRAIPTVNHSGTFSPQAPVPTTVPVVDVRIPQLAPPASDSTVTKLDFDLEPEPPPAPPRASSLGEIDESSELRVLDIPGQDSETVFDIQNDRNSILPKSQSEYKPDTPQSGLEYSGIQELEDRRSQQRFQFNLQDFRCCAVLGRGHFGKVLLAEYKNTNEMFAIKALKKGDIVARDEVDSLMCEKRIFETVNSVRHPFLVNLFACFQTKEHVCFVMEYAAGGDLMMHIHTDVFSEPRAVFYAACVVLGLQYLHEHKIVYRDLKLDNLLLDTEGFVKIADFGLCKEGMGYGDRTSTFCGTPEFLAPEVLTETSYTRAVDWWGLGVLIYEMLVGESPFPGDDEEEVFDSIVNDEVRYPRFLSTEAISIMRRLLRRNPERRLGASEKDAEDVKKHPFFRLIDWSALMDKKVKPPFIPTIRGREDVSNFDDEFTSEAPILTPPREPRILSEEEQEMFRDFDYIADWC

[13] = target: PKCθ(h) (human, UniProt Q04759 1-706)
Sequence of PKCθ(h) (Q04759 whole entry): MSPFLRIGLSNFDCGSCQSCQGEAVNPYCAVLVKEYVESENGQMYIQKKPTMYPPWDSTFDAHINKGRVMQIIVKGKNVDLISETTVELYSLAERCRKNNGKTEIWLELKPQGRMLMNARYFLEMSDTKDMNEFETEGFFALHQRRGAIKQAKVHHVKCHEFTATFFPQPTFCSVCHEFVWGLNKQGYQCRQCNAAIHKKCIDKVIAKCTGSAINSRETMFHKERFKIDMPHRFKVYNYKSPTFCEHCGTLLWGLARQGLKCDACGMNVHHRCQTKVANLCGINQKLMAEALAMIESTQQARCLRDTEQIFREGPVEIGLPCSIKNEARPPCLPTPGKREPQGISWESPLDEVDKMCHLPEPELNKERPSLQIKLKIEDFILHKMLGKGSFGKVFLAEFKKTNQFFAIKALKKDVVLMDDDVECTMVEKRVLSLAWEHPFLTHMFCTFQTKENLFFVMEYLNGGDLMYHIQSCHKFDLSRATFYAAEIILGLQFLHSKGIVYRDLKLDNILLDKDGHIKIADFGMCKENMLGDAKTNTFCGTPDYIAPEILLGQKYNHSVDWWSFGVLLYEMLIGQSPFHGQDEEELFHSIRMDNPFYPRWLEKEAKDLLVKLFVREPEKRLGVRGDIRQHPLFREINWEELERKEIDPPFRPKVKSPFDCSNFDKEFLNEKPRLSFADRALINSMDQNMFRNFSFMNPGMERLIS
Also: test concentration or dose not given here.

Sequence of TrkA(h) (P04629 441-796 limits assumed): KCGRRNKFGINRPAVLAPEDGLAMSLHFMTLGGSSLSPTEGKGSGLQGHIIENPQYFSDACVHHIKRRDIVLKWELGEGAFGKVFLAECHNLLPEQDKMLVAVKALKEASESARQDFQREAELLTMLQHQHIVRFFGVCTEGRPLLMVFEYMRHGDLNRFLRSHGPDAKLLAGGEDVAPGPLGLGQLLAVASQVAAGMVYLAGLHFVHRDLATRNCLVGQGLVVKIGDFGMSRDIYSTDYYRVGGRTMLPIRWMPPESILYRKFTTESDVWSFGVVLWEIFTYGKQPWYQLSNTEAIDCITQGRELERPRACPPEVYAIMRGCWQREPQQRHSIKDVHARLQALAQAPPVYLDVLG
Sequence of Hck(h) activated (P08631 251-518 limits assumed): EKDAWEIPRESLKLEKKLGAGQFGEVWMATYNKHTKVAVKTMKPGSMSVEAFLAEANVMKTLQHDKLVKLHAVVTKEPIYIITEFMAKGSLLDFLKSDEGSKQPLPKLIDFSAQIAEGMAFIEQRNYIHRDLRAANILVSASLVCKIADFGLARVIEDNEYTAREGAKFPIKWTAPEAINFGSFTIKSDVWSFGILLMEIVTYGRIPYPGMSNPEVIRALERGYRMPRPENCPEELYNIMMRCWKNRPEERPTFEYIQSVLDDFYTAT

Row | Binder | % activity [1] | % activity [2] | % activity [3] | % activity [4] | % activity [5] | % activity [6] | % activity [7] | % activity [8] | % activity [9] | % activity [10] | % activity [11] | % activity [12] | % activity [13]
1 | FAKLAARLYRKALARQLGVAA [MMI-0300] | 25% | 2% | 107% | 82% | 79% | 1% | 93% | 2% | 157% | 135% | 17% | 33% | 88%
2 | KAFAKLAARLYRKALARQLGVAA [MMI-0400] | 17% | 1% | 102% | 81% | 59% | 0% | 93% | 11% | 164% | 159% | 18% | 27% | 76%
